From the supplement of paper PMC9112550, “Optimization of the antimicrobial peptide Bac7 by deep mutational scanning” (BMC Biology, 2022)

Test system: Escherichia coli TOP10
Test: shrunken log2 fold change of peptide-encoding DNA abundance (4.5 h post-induction vs induction); higher = less antimicrobial activity (less host growth inhibition)
Conditions: time post-induction: 4.5 h; library: site-saturation at positions 5, 18, 19, 20
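Further: peptides expressed intracellularly from a pBAD plasmid library in pooled LB shake-flask culture, induced with 0.3% L-arabinose, DNA abundance read by NGS, three biological replicates, DESeq2 with apeglm shrinkage.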

Sequence	shrunken log2 fold change
RRIRGRPPRLPRPRPRPCRGPRP	-0.0404
RRIRYRPPRLPRPRPRPSGEPRP	-0.187
RRIRIRPPRLPRPRPRPYPFPRP	-0.38
RRIRWRPPRLPRPRPRPVKPPRP	0.539
RRIRLRPPRLPRPRPRPSFYPRP	-0.7
RRIRTRPPRLPRPRPRPKKPPRP	-0.0293
RRIRSRPPRLPRPRPRPYMKPRP	-0.421
RRIRRRPPRLPRPRPRPTPWPRP	0.841
RRIRARPPRLPRPRPRPHIKPRP	-0.388
RRIRARPPRLPRPRPRPTRKPRP	0.574
RRIRLRPPRLPRPRPRPHVLPRP	-0.0737
RRIRCRPPRLPRPRPRPLCVPRP	-0.481
RRIRQRPPRLPRPRPRPMTLPRP	0.106
RRIRQRPPRLPRPRPRPSMSPRP	-0.393
RRIRDRPPRLPRPRPRPLWGPRP	0.294
RRIRYRPPRLPRPRPRPAKPPRP	-0.0319
RRIRVRPPRLPRPRPRPIHYPRP	-0.137
RRIRHRPPRLPRPRPRPLYFPRP	-0.816
RRIRWRPPRLPRPRPRPEFQPRP	0.118
RRIRMRPPRLPRPRPRPFEAPRP	0.655
RRIRLRPPRLPRPRPRPRGVPRP	0.494
RRIRLRPPRLPRPRPRPPGYPRP	-0.119
RRIRHRPPRLPRPRPRPVWWPRP	0.174
RRIRARPPRLPRPRPRPAMSPRP	0.43
RRIRLRPPRLPRPRPRPQSGPRP	-0.0923

Sequence	shrunken log2 fold change
RRIRERPPRLPRPRPRPVLCPRP	0.0605
RRIRGRPPRLPRPRPRPKQKPRP	-0.0523
RRIRFRPPRLPRPRPRPMQYPRP	-0.683
RRIRTRPPRLPRPRPRPVFQPRP	-0.0322
RRIRNRPPRLPRPRPRPKHIPRP	-0.438
RRIRTRPPRLPRPRPRPDDMPRP	-0.0233
RRIRWRPPRLPRPRPRPDMAPRP	0.204
RRIRWRPPRLPRPRPRPRNYPRP	-0.169
RRIRWRPPRLPRPRPRPCDRPRP	-0.0349
RRIRQRPPRLPRPRPRPRGVPRP	-0.0152
RRIRFRPPRLPRPRPRPQNFPRP	0.0645
RRIRTRPPRLPRPRPRPQDAPRP	-0.0107
RRIRSRPPRLPRPRPRPMMPPRP	-0.0787
RRIRERPPRLPRPRPRPRLHPRP	0.047
RRIRKRPPRLPRPRPRPVVWPRP	0.602
RRIRMRPPRLPRPRPRPNPLPRP	0.567
RRIRNRPPRLPRPRPRPECWPRP	0.616
RRIRQRPPRLPRPRPRPAYGPRP	-0.341
RRIRFRPPRLPRPRPRPCTMPRP	-0.462
RRIRWRPPRLPRPRPRPSTVPRP	-0.362
RRIRNRPPRLPRPRPRPFKIPRP	-0.0688
RRIRRRPPRLPRPRPRPEFEPRP	0.37
RRIRNRPPRLPRPRPRPFYYPRP	-0.877
RRIRMRPPRLPRPRPRPWIRPRP	-0.167
RRIRARPPRLPRPRPRPCSMPRP	0.00269

Sequence	shrunken log2 fold change
RRIRIRPPRLPRPRPRPAKAPRP	-0.00404
RRIRLRPPRLPRPRPRPNNEPRP	-0.276
RRIRARPPRLPRPRPRPDSRPRP	0.12
RRIRWRPPRLPRPRPRPVKKPRP	0.29
RRIRQRPPRLPRPRPRPKHFPRP	-0.0231
RRIRDRPPRLPRPRPRPDQQPRP	0.0408
RRIRSRPPRLPRPRPRPSSWPRP	0.206
RRIRLRPPRLPRPRPRPEGPPRP	0.539
RRIRARPPRLPRPRPRPVFCPRP	0.487
RRIRCRPPRLPRPRPRPMCRPRP	-0.274
RRIRARPPRLPRPRPRPYWNPRP	-0.566
RRIRRRPPRLPRPRPRPGIDPRP	-0.0704
RRIRARPPRLPRPRPRPWFCPRP	0.0743
RRIRWRPPRLPRPRPRPLNNPRP	-0.323
RRIRFRPPRLPRPRPRPNTFPRP	-0.559
RRIRHRPPRLPRPRPRPHAKPRP	-0.00884
RRIRDRPPRLPRPRPRPDGCPRP	0.252
RRIRQRPPRLPRPRPRPPDCPRP	-0.0194
RRIRARPPRLPRPRPRPCPSPRP	0.0639
RRIRERPPRLPRPRPRPRYVPRP	-0.0655
RRIRERPPRLPRPRPRPYGGPRP	-0.286
RRIRERPPRLPRPRPRPMMDPRP	-0.0298
RRIRFRPPRLPRPRPRPEHAPRP	0.243
RRIRYRPPRLPRPRPRPTDRPRP	-0.144
RRIRLRPPRLPRPRPRPSYLPRP	-0.659

Sequence	shrunken log2 fold change
RRIRNRPPRLPRPRPRPQLHPRP	-0.358
RRIRERPPRLPRPRPRPIECPRP	-0.339
RRIRCRPPRLPRPRPRPCIQPRP	0.0591
RRIRVRPPRLPRPRPRPDWKPRP	-0.0682
RRIRQRPPRLPRPRPRPIQWPRP	0.34
RRIRGRPPRLPRPRPRPCVPPRP	0.307
RRIRLRPPRLPRPRPRPCHMPRP	-0.0107
RRIRPRPPRLPRPRPRPWSPPRP	0.121
RRIRERPPRLPRPRPRPLKGPRP	0.176
RRIRKRPPRLPRPRPRPRTNPRP	0.238
RRIRLRPPRLPRPRPRPYVYPRP	-0.706
RRIRGRPPRLPRPRPRPMGLPRP	-0.0139
RRIRHRPPRLPRPRPRPTGEPRP	-0.0103
RRIRDRPPRLPRPRPRPKYFPRP	-0.0236
RRIRCRPPRLPRPRPRPGHLPRP	-0.0824
RRIRRRPPRLPRPRPRPAEFPRP	0.0257
RRIRDRPPRLPRPRPRPTLGPRP	1.08
RRIRHRPPRLPRPRPRPKRDPRP	0.158
RRIRKRPPRLPRPRPRPARTPRP	0.476
RRIRKRPPRLPRPRPRPNQDPRP	-0.184
RRIRSRPPRLPRPRPRPQRHPRP	0.141
RRIRFRPPRLPRPRPRPKVMPRP	-0.178
RRIRDRPPRLPRPRPRPFKWPRP	-0.0034
RRIRHRPPRLPRPRPRPMRFPRP	-0.00752
RRIRKRPPRLPRPRPRPQPRPRP	0.752

Sequence	shrunken log2 fold change
RRIRQRPPRLPRPRPRPTPMPRP	2.6
RRIRQRPPRLPRPRPRPRHGPRP	-0.203
RRIRERPPRLPRPRPRPPKMPRP	-0.212
RRIRRRPPRLPRPRPRPGRTPRP	0.315
RRIRFRPPRLPRPRPRPFFMPRP	-0.153
RRIRNRPPRLPRPRPRPDVTPRP	0.216
RRIRGRPPRLPRPRPRPCIGPRP	-0.143
RRIRDRPPRLPRPRPRPFLVPRP	-0.199
RRIRGRPPRLPRPRPRPMFNPRP	-0.192
RRIRKRPPRLPRPRPRPMIYPRP	-0.718
RRIRQRPPRLPRPRPRPYREPRP	-0.0135
RRIRARPPRLPRPRPRPIHIPRP	-0.24
RRIRQRPPRLPRPRPRPCWDPRP	-0.155
RRIRFRPPRLPRPRPRPQGEPRP	0.00441
RRIRDRPPRLPRPRPRPEYIPRP	-0.0149
RRIRNRPPRLPRPRPRPECSPRP	0.079
RRIRPRPPRLPRPRPRPHDGPRP	-0.0292
RRIRIRPPRLPRPRPRPWTWPRP	-0.204
RRIRCRPPRLPRPRPRPNGAPRP	-0.0129
RRIRRRPPRLPRPRPRPCYKPRP	-0.202
RRIRERPPRLPRPRPRPNSFPRP	-0.249
RRIRARPPRLPRPRPRPTATPRP	1.2
RRIRGRPPRLPRPRPRPNFCPRP	0.362
RRIRHRPPRLPRPRPRPSMHPRP	-0.705
RRIRGRPPRLPRPRPRPIQLPRP	0.043

Sequence	shrunken log2 fold change
RRIRLRPPRLPRPRPRPRLPPRP	0.149
RRIRRRPPRLPRPRPRPLDCPRP	0.107
RRIRNRPPRLPRPRPRPPDTPRP	-0.0361
RRIRGRPPRLPRPRPRPQCVPRP	-0.0809
RRIRLRPPRLPRPRPRPQRSPRP	0.16
RRIRVRPPRLPRPRPRPNNPPRP	-0.352
RRIRKRPPRLPRPRPRPLNQPRP	-0.128
RRIRSRPPRLPRPRPRPEAQPRP	0.438
RRIRYRPPRLPRPRPRPKRDPRP	-0.0103
RRIRSRPPRLPRPRPRPSIFPRP	-0.511
RRIRFRPPRLPRPRPRPQWTPRP	-0.075
RRIRVRPPRLPRPRPRPIRTPRP	0.782
RRIRIRPPRLPRPRPRPFVHPRP	-0.498
RRIRERPPRLPRPRPRPDHCPRP	-0.0389
RRIRPRPPRLPRPRPRPPPMPRP	0.52
RRIRCRPPRLPRPRPRPCAFPRP	-0.311
RRIRLRPPRLPRPRPRPDSNPRP	-0.0277
RRIRFRPPRLPRPRPRPMCKPRP	-0.169
RRIRARPPRLPRPRPRPVILPRP	-0.0803
RRIRIRPPRLPRPRPRPQASPRP	-0.0941
RRIRVRPPRLPRPRPRPQVTPRP	-0.425
RRIRPRPPRLPRPRPRPLNHPRP	-0.363
RRIRYRPPRLPRPRPRPKCVPRP	0.0122
RRIRARPPRLPRPRPRPCNPPRP	-0.0307
RRIRKRPPRLPRPRPRPYGNPRP	-0.135
